Test results: the Human Domainome abundance scans (Beltran et al. 2025)
± gives the uncertainty stated by the source.

B1: Cold shock protein CspB, residues 1 to 66; numbered along this chain, P41016 (parent)
chain: MQRGKVKWFNNEKGYGFIEVEGGSDVFVHFTAIQGEGFKTLEEGQEVSFEIVQGNRGPQAANVVKL

Variants of: B1
Assay: abundance fitness (aPCA) (normalised: wild type 0, dead -1); higher = more abundant; growth selection in yeast, the domain comes from the species named
Conditions: Bacillus caldolyticus

Row | Variant | abundance fitness
1 | G35L | -0.127 ± 0.025
2 | G35M | 0.002 ± 0.035
3 | G35R | -0.111 ± 0.033
4 | G35N | -0.06 ± 0.11
5 | V6C | -0.058 ± 0.059
6 | V6L | -0.158 ± 0.03
7 | V6S | -0.324 ± 0.036
8 | V6F | -0.622 ± 0.051
9 | Y15W | 0.023 ± 0.051
10 | Y15N | -0.256 ± 0.054
11 | Y15D | -0.332 ± 0.072
12 | Y15E | -0.188 ± 0.041
13 | Y15F | -0.047 ± 0.05
14 | Y15C | -0.186 ± 0.048
15 | T31I | -0.314 ± 0.053
16 | T31N | -0.127 ± 0.066
17 | T31V | -0.345 ± 0.043
18 | T31W | -0.289 ± 0.035
19 | T31E | -0.087 ± 0.068
20 | T31C | -0.146 ± 0.05
21 | V47Q | -0.935 ± 0.36
22 | V47M | -0.702 ± 0.48
23 | V47G | -0.623 ± 0.26
24 | I33F | -0.111 ± 0.046

Row | Variant | abundance fitness
25 | I33S | -0.422 ± 0.031
26 | I33Q | -0.381 ± 0.04
27 | I33E | -0.477 ± 0.041
28 | I33C | -0.127 ± 0.052
29 | I33D | -0.369 ± 0.057
30 | I33G | -0.41 ± 0.033
31 | I33M | -0.144 ± 0.04
32 | I33K | -0.456 ± 0.056
33 | D25A | -0.113 ± 0.04
34 | D25V | -0.141 ± 0.035
35 | D25P | -0.093 ± 0.036
36 | Q34F | 0.052 ± 0.14
37 | Q34R | 0.001 ± 0.034
38 | Q34G | -0.005 ± 0.041
39 | Q34L | -0.02 ± 0.031
40 | Q34Y | -0.073 ± 0.082
41 | Q34D | 0.079 ± 0.11
42 | W8R | -0.075 ± 0.42
43 | L41K | -0.721 ± 0.047
44 | L41P | -0.46 ± 0.044
45 | L41C | -0.121 ± 0.054
46 | L41N | -0.515 ± 0.062
47 | L41E | -0.482 ± 0.044
48 | L41H | -0.616 ± 0.063

Row | Variant | abundance fitness
49 | E21G | 0.02 ± 0.047
50 | E21Y | -0.022 ± 0.042
51 | E21S | -0.009 ± 0.036
52 | E21F | -0.052 ± 0.054
53 | E21T | 0.014 ± 0.055
54 | E21M | -0.051 ± 0.069
55 | K65P | 0.025 ± 0.064
56 | K65F | -0.098 ± 0.05
57 | K65C | -0.035 ± 0.049
58 | K65I | 0.04 ± 0.076
59 | K65V | -0.015 ± 0.056
60 | K65H | 0.014 ± 0.06
61 | K65Y | -0.13 ± 0.047
62 | K65Q | -0.023 ± 0.06
63 | G44K | -0.041 ± 0.055
64 | G44V | -0.344 ± 0.031
65 | G44E | -0.05 ± 0.054
66 | G44Y | -0.066 ± 0.066
67 | G44H | 0.014 ± 0.083
68 | G44D | 0.019 ± 0.099
69 | G44M | -0.043 ± 0.047
70 | G44T | -0.093 ± 0.052
71 | G44L | -0.076 ± 0.031
72 | F49P | -0.984 ± 0.079

Row | Variant | abundance fitness
73 | F49E | -0.965 ± 0.11
74 | F49Y | -0.037 ± 0.083
75 | F49D | -1.08 ± 0.16
76 | F49I | -0.123 ± 0.08
77 | F49N | -1.05 ± 0.21
78 | F49H | -0.445 ± 0.09
79 | F49Q | -0.893 ± 0.094
80 | F49L | -0.007 ± 0.029
81 | F9S | -0.408 ± 0.028
82 | F9C | -0.35 ± 0.038
83 | F9K | -0.389 ± 0.047
84 | F9E | -0.827 ± 0.088
85 | F9Q | -0.854 ± 0.073
86 | F9H | -0.567 ± 0.057
87 | G37H | -0.036 ± 0.048
88 | G37F | -0.153 ± 0.055
89 | G37M | -0.117 ± 0.034
90 | G37S | -0.072 ± 0.034
91 | G22M | -0.01 ± 0.047
92 | G22I | -0.027 ± 0.059
93 | G22T | 0.025 ± 0.048
94 | G22W | -0.019 ± 0.036
95 | G22S | 0.011 ± 0.035
96 | G22V | -0.02 ± 0.033

Row | Variant | abundance fitness
97 | E43V | -0.033 ± 0.05
98 | E43C | 0.032 ± 0.092
99 | R3F | -0.003 ± 0.062
100 | R3T | -0.024 ± 0.059
101 | R3V | -0.013 ± 0.034
102 | R3K | -0.046 ± 0.055
103 | R3A | -0.032 ± 0.034
104 | R3W | -0.117 ± 0.041
105 | R3I | -0.025 ± 0.081
106 | R3G | -0.004 ± 0.031
107 | I18C | -0.164 ± 0.064
108 | I18K | -0.926 ± 0.078
109 | I18G | -1.07 ± 0.15
110 | I18Q | -1.12 ± 0.14
111 | V26R | -0.248 ± 0.032
112 | V26W | -0.23 ± 0.035
113 | V26K | -0.251 ± 0.059
114 | V26P | -0.566 ± 0.038
115 | V26D | -0.529 ± 0.06
116 | V52Y | -0.043 ± 0.092
117 | V52E | -0.004 ± 0.037
118 | V52T | 0.012 ± 0.027
119 | V52D | -0.092 ± 0.072
120 | V52C | -0.014 ± 0.077

Row | Variant | abundance fitness
121 | K5E | -0.065 ± 0.056
122 | K5R | -0.035 ± 0.026
123 | K5D | -0.156 ± 0.082
124 | K5A | -0.042 ± 0.042
125 | S48H | -0.023 ± 0.068
126 | S48D | 0.004 ± 0.06
127 | S48N | -0.099 ± 0.089
128 | S48I | -0.028 ± 0.074
129 | S48W | -0.074 ± 0.066
130 | L66Q | 0.021 ± 0.057
131 | L66S | -0.016 ± 0.04
132 | L66T | -0.023 ± 0.057
133 | L66W | 0.004 ± 0.05
134 | N10D | -0.086 ± 0.061
135 | N10E | -0.079 ± 0.051
136 | N10Q | -0.025 ± 0.049
137 | N10A | -0.047 ± 0.034
138 | N10P | -0.792 ± 0.053
139 | N10C | -0.027 ± 0.048
140 | N10W | -0.122 ± 0.037
141 | P58I | -0.055 ± 0.072
142 | P58D | -0.037 ± 0.059
143 | P58A | 0 ± 0.047
144 | V28Q | -0.901 ± 0.084

Row | Variant | abundance fitness
145 | V28C | 0.017 ± 0.048
146 | V28S | -0.355 ± 0.03
147 | V28L | -0.107 ± 0.029
148 | V28P | -0.693 ± 0.088
149 | E42V | -0.008 ± 0.028
150 | E42M | -0.006 ± 0.048
151 | E42F | -0.048 ± 0.049
152 | E42K | 0.017 ± 0.06
153 | E19A | 0.05 ± 0.052
154 | E19Q | 0.009 ± 0.057
155 | E19I | -0.021 ± 0.059
156 | E19T | -0.029 ± 0.064
157 | E19G | 0.023 ± 0.039
158 | E19W | -0.011 ± 0.044
159 | E19K | 0.031 ± 0.078
160 | E19Y | -0.075 ± 0.057
161 | K7Y | -0.316 ± 0.042
162 | K7P | -0.817 ± 0.057
163 | K7L | -0.058 ± 0.027
164 | K7W | -0.49 ± 0.057
165 | K7C | -0.003 ± 0.035
166 | K7S | -0.033 ± 0.026
167 | K7Q | -0.07 ± 0.051
